In the RNAGym collection of RNA variant scans (doi:10.7554/elife.80360) one finds self-cleavage data, which are given here for 167 variants.

Sequences and labels used below:
B1: Hairpin Ribozyme (parent)
chain: GUCCUCUUUCACGUGCGCGUGAAAGAGAGAAGUGAACCAGAGAAACACACGUUGUGGUAUAUUACCUGGUA

Variants of B1 are the subject of this series. The experiment in a line: self-cleavage, relative activity (ratio to wild type); higher = more cleavage; co-transcriptional.
In the case of A30C A44C, the self-cleavage was determined as 0.0571. As to G29C U67A, the self-cleavage stood at 0.179. For the variant A28G G54U, the self-cleavage worked out at 0.541. For G29C C65G the value was 0.209; for G29C C65A, 0.204; for G29C A31U, 0.0962.

Consider A30C G54C, for which the self-cleavage came out at 0.173. For the variant A30C G54A, the self-cleavage is 0.107.

For G29C A47G, the self-cleavage was 0.0858.

For G29C A47C, the self-cleavage was determined as 0.15. The same measure for A28G A59C: 0.114; for A28G A59G: 0.181; for A28U C46A: 0.0952. For A28C A39U the value was 0.127; for A28C A39C, 0.238; for A28U G54U, 0.3. As for G29U G56C, the self-cleavage amounted to 0.162. For A28U U67G the value was 0.201; for A28U A36U, 0.276. Take A28G A36G: the self-cleavage was determined as 1.16. The same measure for A28G C50U: 0.439; for A28G C50G: 0.467; for A28G U52C: 0.763. Turning to A28G U52G, the self-cleavage was 0.948. For A28C C46G the value was 0.0967. Turning to A28C C46U, the self-cleavage is 0.151. The same measure for A28C C46A: 0.191; for G29U A39U: 0.0632; for G29U A39G: 0.0986.

Consider G29A A47U, for which the self-cleavage was 0.107.

Take G29A A47C: the self-cleavage turned out to be 0.107.

Turning to G29U G68U, the self-cleavage is 0.176.

With G29A G57C, the self-cleavage was 0.109.

Take A30C U55A: the self-cleavage is 0.146.

Consider A30C U55C, for which the self-cleavage turned out to be 0.161. Turning to A28C, the self-cleavage was found to be 0.497. The same measure for A28U: 0.656; for A28G: 1.12. With A28U A39C, the self-cleavage amounted to 0.337. For A28U U60A the value was 0.493; for G29C A30U, 0.0915. The same measure for G29C A30G: 0.218; for G27U U63G: 0.243. For A30C U70G the value was 0.0924. For the variant G29U C46A, the self-cleavage stood at 0.089. As to G29U C46U, the self-cleavage turned out to be 0.124. The same measure for A30G G40A: 0.0732; for G29C A49U: 0.109. The same measure for G29C A49G: 0.178; for G29A C65U: 0.145. For A30C G69C the value was 0.318; for A30C G69A, 0.0574; for G29A U52G, 0.0639. For G29A U52A, the self-cleavage was determined as 0.115. The same measure for A30G U58C: 0.0836; for G29C G34C: 0.116; for G29A U53A: 0.109. For the variant A28G G40A, the self-cleavage is 0.426. The same measure for A30C C46G: 0.0771; for A30C C46A: 0.0713; for A28G U67C: 0.276. On to G29U A59G, for which the self-cleavage is 0.0822. The same measure for G29U A59U: 0.104; for A28G A61U: 0.182. The same measure for A28G A61C: 0.434; for A28C G34C: 1.5.

In the case of A28G A49G, the self-cleavage worked out at 0.637. For A28G A49U the value was 0.118; for A28C A47C, 0.0848; for A28C A47G, 0.0559. For A30C G56U the value was 0.157; for G29C G69C, 0.0776; for G29U A31U, 0.151. Consider G29U A31C, for which the self-cleavage came out at 0.2.

With G29U A31G, the self-cleavage is 0.167. For the variant G29U G34C, the self-cleavage stood at 0.0691.

For G29C A45G, the self-cleavage was 0.106.

In the case of G29C A45U, the self-cleavage came to 0.122. Take A30G U70G: the self-cleavage was found to be 0.262. For A30G U70A the value was 0.0747.

As for A30G U70C, the self-cleavage was 0.0846. Consider A28G A45G, for which the self-cleavage was 0.242.

Regarding A28U A71G, the self-cleavage is 0.673. The same measure for A28U A45G: 0.121. As for A30G A36U, the self-cleavage came out at 0.152. The same measure for A28C G57A: 0.119. In the case of A28C G56C, the self-cleavage is 0.101. Regarding G29C G40U, the self-cleavage was 0.171.

For the variant A28U G40C, the self-cleavage amounted to 0.0881. Turning to A30G A61C, the self-cleavage is 0.109. A28C G32U: the self-cleavage was 0.0817. In the case of A28C G32C, the self-cleavage came out at 0.121. Consider A30C G57U, for which the self-cleavage came out at 0.266.

In the case of A28C G29U, the self-cleavage worked out at 0.0915.

Regarding A28C G29C, the self-cleavage was 0.204. The same measure for A28U C66G: 0.302; for A28U C66U: 0.207; for G29A U33A: 0.203. In the case of G29A C38G, the self-cleavage turned out to be 0.101.

Consider A28U G29A, for which the self-cleavage turned out to be 0.0881. Turning to G29U U58G, the self-cleavage came to 0.168. For A28C A43C the value was 0.125; for A28C A43U, 0.148; for A30C A45U, 0.0541.

On to A30C A45G, for which the self-cleavage is 0.194. As to A28C A61U, the self-cleavage amounted to 0.272. For A28U G51C the value was 0.49. A28U G51U: the self-cleavage worked out at 0.485. For A30C C50U the value was 0.118; for A28U U53A, 0.845. As for A28G A35G, the self-cleavage was 0.864. For A28G A35C the value was 1.27.

On to A28U C65G, for which the self-cleavage came to 0.151. Take A28U C65U: the self-cleavage was found to be 0.153.

Consider G29U U63G, for which the self-cleavage was determined as 0.103.

For the variant G29C U33A, the self-cleavage was found to be 0.0541.

Consider A28C A41U, for which the self-cleavage was found to be 1.12. For A28U G68U the value was 0.272; for A28U G68C, 0.151. The same measure for A28U G68A: 0.153. In the case of G29A G34C, the self-cleavage was determined as 0.248. The same measure for G29A A35U: 0.0646.

Regarding G29A U55A, the self-cleavage is 0.13. As to G29A U55G, the self-cleavage came out at 0.143. For G29A C66G the value was 0.0855; for A30G U62G, 0.112.

Regarding A30G A43C, the self-cleavage was found to be 0.1. The same measure for A28U U70A: 0.422; for G29A U63C: 0.0755; for A30C U58G: 0.103.

For the variant A30C U58A, the self-cleavage was 0.134. For G29U A64G the value was 0.0899; for G29U U60G, 0.17; for A30C G34U, 0.815. Consider A30C A31U, for which the self-cleavage came out at 0.129. The same measure for A30G C46U: 0.236; for A28U G69U: 0.0991; for A28U G69A: 0.137.

With A30G C38U, the self-cleavage stood at 0.21. The same measure for A28G A44G: 0.222. Take A30C U53C: the self-cleavage came to 0.203.

As for A30C U53G, the self-cleavage came to 0.284.

As to A28C U67A, the self-cleavage was found to be 0.135.

As to A28C U67G, the self-cleavage came to 0.184.

As to G29A G56A, the self-cleavage came to 0.157. The same measure for G29A A71G: 0.112. For G29A A71C the value was 0.295; for A30G U53G, 0.157. Take A30G C50A: the self-cleavage amounted to 0.0824. The same measure for A30G C50U: 0.0809; for A28U A41G: 0.35; for A28U A41U: 1.31. Take G29C A39U: the self-cleavage worked out at 0.0768. The same measure for A28U U55C: 0.161. For A28U U55G the value was 0.159; for A28C A45G, 0.201; for A28C A45U, 0.134. As for A28C A59U, the self-cleavage is 0.14. Take A28C A59G: the self-cleavage came to 0.117. For the variant A28U G56A, the self-cleavage turned out to be 0.174.

For A28U G56C, the self-cleavage is 0.151. The same measure for A28U G56U: 0.0609. A28G G68C: the self-cleavage came out at 0.115. On to A28C G51A, for which the self-cleavage was 0.517.

Consider A28C G51C, for which the self-cleavage was 0.336. As for A30G A45G, the self-cleavage was 0.17.

Take G29U G54A: the self-cleavage amounted to 0.104.
